B1: Example 41 (peptide)
peptide: CQWLEDCWRGXC
modifications: not fully specified; N-term acetyl; CQWLEDCWRG[3-F,4-ClPhe]C as printed; 3 Cys on TATA
B2: Example 80 (peptide)
peptide: Ac-CQW[Ala(cPr)]EDCWRGFC
modifications: linker 1-7-12 via TATA; not fully specified (C-terminus); printed as CQW[CproA]EDCWRGFC
B3: Example 22 (peptide)
peptide: CQWLEDCWRGXC
modifications: not fully specified; N-term acetyl; CQWLEDCWRG[3,4diFPhe]C as printed; 3 Cys on TATA
B4: Example 27 (peptide)
peptide: CQXLEDCWRGXC
modifications: not fully specified; N-term acetyl; CQ[Nal1]LEDCWRG[4-FPhe]C as printed; 3 Cys on TATA
B5: Example 26 (peptide)
peptide: CQWLEDCWRGXC
modifications: not fully specified; N-term acetyl; CQWLEDCWRG[4-BrPhe]C as printed; 3 Cys on TATA
B6: Example 38 (peptide)
peptide: CQXLEDCWXGXC
modifications: not fully specified; N-term acetyl; CQ[Nal1]LEDCW[ADMA]G[4-FPhe]C as printed; 3 Cys on TATA
B7: Example 28 (peptide)
peptide: CWWLQDCWXGXC
modifications: not fully specified; N-term acetyl; CWWLQDCW[ADMA]G[4-FPhe]C as printed; 3 Cys on TATA
B8: Example 21 (peptide)
peptide: CQXLEDCXRGXC
modifications: not fully specified; N-term acetyl; CQ[5FTrp]LEDC[5FTrp]RG[4-FPhe]C as printed; 3 Cys on TATA
B9: Example 74 (peptide)
peptide: CQWLEDCWRGXC
modifications: not fully specified; N-term acetyl; CQWLEDCWRG[3-MePhe]C as printed; 3 Cys on TATA
B10: Example 37 (peptide)
peptide: CQWLEDCWRGXC
modifications: not fully specified; N-term acetyl; CQWLEDCWRG[3,4,5triFPhe]C as printed; 3 Cys on TATA

Here are results for 54 molecules from patent US20220363718A1 (Bicycle, published 2022).

*1 amine or outer side, *2 acyl side, *3 side chain or, on linkers, in order; H or OH if unused. Bridges are numbered along the chain shown (N, C = ends). Where no end group is shown, it is not given here. [ ]: non-standard residue; d: D form. TATA = O=C(CC[*:1])N1CN(C(=O)CC[*:2])CN(C(=O)CC[*:3])C1; Trp(1-Me) = Cn1cc(C[C@H](N)C(=O)O)c2ccccc21; Arg(Me2a) = CN(C)C(=N)NCCC[C@H](N)C(=O)O; Lys(Me3) = C[N+](C)(C)CCCC[C@H](N)C(=O)O; Phe(4-F) = N[C@@H](Cc1ccc(F)cc1)C(=O)O; 1Nal = N[C@@H](Cc1cccc2ccccc12)C(=O)O; Ala(cPent) = N[C@@H](CC1CCCC1)C(=O)O; Ala(cPr) = N[C@@H](CC1CC1)C(=O)O; tBuAla = CC(C)(C)C[C@H](N)C(=O)O; NMeA = CN[C@@H](C)C(=O)O; Orn = NCCC[C@H](N)C(=O)O

T1 sequence (chain, as listed by the source limits assumed): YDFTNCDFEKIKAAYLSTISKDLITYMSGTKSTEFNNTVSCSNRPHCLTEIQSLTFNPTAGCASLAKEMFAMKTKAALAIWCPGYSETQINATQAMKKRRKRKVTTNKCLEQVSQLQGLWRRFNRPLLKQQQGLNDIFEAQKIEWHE

In the first assay the target is TSLP (as used in the human PBMC assay) (UniProt Q969D9 29-159). Nature of the assay: cell-based or functional assay.
With CQWLEDCWRGXC (not fully specified; Ac-CQWLEDCWRG[4-FPhe]C; 3 Cys cyclised with TATA) [Example 17], the “CCL17 % Inhibition @ 10 µM, 50 pM TSLP” value was found to be 1%.

As for CQWXEDCWRGXC (not fully specified; Ac-CQW[tBuA]EDCWRG[4-FPhe]C; 3 Cys cyclised with TATA) [Example 4], the “CCL17 % Inhibition @ 10 µM, 50 pM TSLP” value is 47%.

Take CQWLEDCWRGXC (not fully specified; Ac-CQWLEDCWRG[3-ClPhe]C; 3 Cys cyclised with TATA) [Example 32]: the “CCL17 % Inhibition @ 10 µM, 666 pM TSLP” value was determined as 14%.

Take ACQWLEDCWRGFCADGDML (linker 2-8-13 via TATA) [Example 42]: the “CCL17 % Inhibition @ 10 µM, 50 pM TSLP” value was below 20% and the “CCL17 % Inhibition @ 10 µM, 666 pM TSLP” value is 47%.

As for Ac-C[NMeA][1Nal][tBuAla]QDC[Trp(1-Me)][Arg(Me2a)]G[Phe(4-F)]C (linker 1-7-12 via TATA; not fully specified (C-terminus)) [Example 25], the “CCL17 % Inhibition @ 10 µM, 50 pM TSLP” value is 71%.

In the case of CQWLEDCWRGXC (not fully specified; Ac-CQWLEDCWRG[3,4diFPhe]C; 3 Cys cyclised with TATA), the “CCL17 % Inhibition @ 10 µM, 50 pM TSLP” value turned out to be 41%.

With Ac-C[NMeA][1Nal][tBuAla]QDC[Trp(1-Me)][Arg(Me2a)]G[Phe(4-F)]C[dA] (linker 1-7-12 via TATA; not fully specified (C-terminus)) [Example 29], the “CCL17 % Inhibition @ 10 µM, 50 pM TSLP” value amounted to 61% and the “CCL17 % Inhibition @ 10 µM, 400 pM TSLP” value is 62%.

Turning to CQWLEDCWRGXC (not fully specified; Ac-CQWLEDCWRG[4F3ClPhe]C; 3 Cys cyclised with TATA) [Example 8], the “CCL17 % Inhibition @ 10 µM, 50 pM TSLP” value amounted to 71%.

On to Ac-C[NMeA][Trp(1-Me)][tBuAla]QDC[Trp(1-Me)][Arg(Me2a)]G[Phe(4-F)]C (linker 1-7-12 via TATA) [Example 18], for which the “CCL17 % Inhibition @ 10 µM, 50 pM TSLP” value stood at 89%.

For CQXLEDCWRGXC (not fully specified; Ac-CQ[Nal1]LEDCWRG[4-FPhe]C; 3 Cys cyclised with TATA), the “CCL17 % Inhibition @ 10 µM, 666 pM TSLP” value is 33%.

Another assay addresses T1, Biotinylated human TSLP (human, biotinylated).
T1 construct: also called hTSLP; thymic stromal lymphopoietin
Nature of the assay: SPR, biotinylated hTSLP on streptavidin chip. (Surface plasmon resonance follows binding to a sensor surface in real time, without labels.)
By Kd is commonly meant the concentration at which binding is half-saturated. High values mean a looser complex, low ones a tighter complex. For B1, the dissociation constant (Kd) was 24 nM.

Turning to B2, the Kd turned out to be 100 nM.

The molecule RDLCTDLDPWTCPDWWLCA (linker 4-12-18 via TATA) [Example 189] had a Kd of 310 nM.

For the molecule SDEQRTCQWLEDCWRGFCA (linker 7-13-18 via TATA) [Example 61], binding was put at a Kd of 62 nM.

With CQWLEDCWRGXC (N-term acetyl; CQWLEDCWRG[4-CF3Phe]C as printed; 3 Cys on TATA) [Example 77], binding was put at a Kd of 93 nM.

Consider ETNNLECQWLEDCWRGFCA (linker 7-13-18 via TATA) [Example 71], for which binding was put at a Kd of 82 nM.

Consider Ac-CQWLEDCW[Lys(Me3)]GFC (linker 1-7-12 via TATA; not fully specified (C-terminus)) [Example 81], for which the Kd was found to be 100 nM.

Consider ACVDLDPWSCEDWWLCA (linker 2-10-16 via TATA) [Example 183], for which the Kd worked out at 330 nM.

Ac-CQWLEDCWRGFCAPDERD (linker 1-7-12 via TATA) [Example 54] displayed an equilibrium dissociation constant (Kd) of 46 nM.

On to B3, for which the dissociation constant (Kd) stood at 9.7 nM.

As to ACDWVWEYDCWLPCA (linker 2-10-14 via TATA) [Example 197], binding was put at a Kd of 460 nM.

With B4, binding was characterised by a dissociation constant (Kd) of 12 nM.

Molecule RAPCPDLDPWTCSDWWLCA (linker 4-12-18 via TATA) [Example 187] registered a dissociation constant (Kd) of 86 nM.

In turn, B5 gave a Kd of 11 nM.

In turn, CTELDXWTCETWWLC (CTELD[diF-P]WTCETWWLC as printed; 3 Cys on TATA) [Example 182] yielded a Kd of 1300 nM.

Molecule CQWLEDCXRGXC (N-term acetyl; CQWLEDC[4-ClNal]RG[4-FPhe]C as printed; 3 Cys on TATA) [Example 60] returned a dissociation constant Kd of 62 nM.

As to C[Orn]ELDPWTCETWWLC (linker 1-9-15 via TATA) [Example 180], the Kd stood at 300 nM.

ACTWLEDCWRGFCADS (linker 2-8-13 via TATA) [Example 63] gave a Kd of 65 nM.

As to RVNTHQCRDLDPWTCSSWWLCA (linker 7-15-21 via TATA) [Example 190], the affinity, expressed as Kd, was 81 nM.

The molecule B6 had a dissociation constant Kd of 20 nM.

CAXLEDCWXGXC (N-term acetyl; CA[Nal1]LEDCW[Harg]G[4-FPhe]C as printed; 3 Cys on TATA) [Example 62]: binding was put at a Kd of 63 nM.

Regarding ACTWLDDCWRGFCA (linker 2-8-13 via TATA) [Example 76], binding was put at a Kd of 93 nM.

For the molecule CQWLQDCWXGXC (N-term acetyl; CQWLQDCW[ADMA]G[4-FPhe]C as printed; 3 Cys on TATA) [Example 20], the dissociation constant Kd came to 8.6 nM.

Consider CQWLEDCWXGXC (N-term acetyl; CQWLEDCW[4-PipA]G[4-FPhe]C as printed; 3 Cys on TATA) [Example 70], for which the affinity, expressed as Kd, was 80 nM.

B7 had a Kd of 12 nM.

Take SPPCVWLDDCWRGFCA (linker 4-10-15 via TATA) [Example 73]: binding was characterised by a dissociation constant (Kd) of 85 nM.

As for ACRDLDPWTCSSWWLCKPDHVDA (linker 2-10-16 via TATA) [Example 177], the Kd was found to be 580 nM.

In turn, SHVCRDLDPWTCDSWWLCA (linker 4-12-18 via TATA) [Example 188] displayed a Kd of 72 nM.

In turn, ACHWLEDCWRGFCHLE (linker 2-8-13 via TATA; not fully specified (C-terminus)) [Example 75] showed an equilibrium dissociation constant (Kd) of 92 nM.

For ACQWLEDCWRGFCDDAHAP (linker 2-8-13 via TATA) [Example 55], binding was put at a Kd of 47 nM.

For the molecule ACDWDWEYDCWLHCA (linker 2-10-14 via TATA) [Example 198], the equilibrium dissociation constant (Kd) was 290 nM.

Take B8: the equilibrium dissociation constant (Kd) is 9.2 nM.

Take CKELDPWTCETWWLC (linker 1-9-15 via TATA) [Example 179]: the Kd is 360 nM.

Regarding CQELDPWTCETWWLC (linker 1-9-15 via TATA) [Example 181], the Kd turned out to be 310 nM.

As to CTELDXWTCETWWLC (CTELD[Chx-P]WTCETWWLC as printed; 3 Cys on TATA) [Example 195], binding was put at a Kd of 15000 nM.

B9 returned a Kd of 91 nM.

ACDWHWEYDCWLSCA (linker 2-10-14 via TATA) [Example 199]: the affinity, expressed as Kd, was 81 nM.

For the molecule DHDCTWNWEYDCWLDCA (linker 4-12-16 via TATA) [Example 200], binding was characterised by a dissociation constant (Kd) of 68 nM.

In the case of B10, the Kd came to 19 nM.

Consider CTELDXWTCETWWLC (CTELD[5-Ph-P]WTCETWWLC as printed; 3 Cys on TATA) [Example 194], for which the dissociation constant (Kd) came out at 290 nM.

Ac-CQW[Ala(cPent)]EDCWRGFC (linker 1-7-12 via TATA) [Example 65] had a Kd of 70 nM.

ACRDLDPWTCSSWWLCADGLYDA (linker 2-10-16 via TATA) [Example 193] displayed an equilibrium dissociation constant (Kd) of 50 nM.

Molecule ACDWQWSYDCWLPCA (linker 2-10-14 via TATA) [Example 196] gave an equilibrium dissociation constant (Kd) of 6100 nM.

Ac-ACQWLEDCWRGFCPLD (linker 2-8-13 via TATA; not fully specified (C-terminus)) [Example 53] displayed a Kd of 43 nM.
